Laboratory results taken from IntAct's records for PubMed 28684427.

B1: ALBINO3-like protein 1, chloroplastic (Arabidopsis thaliana (Mouse-ear cress)), Q9FYL3 (parent)
chain: MSSTISLKPTHLILSSFSTGKVLQFRRSRFSHTPSSSSSRYRTLVAQLGFRPDSFDFIKDHAENLLYTIADAAVSSSETFESVAGTTTKTTQSNDWFSGIANYMETILKVLKDGLSTVHVPYSYGFAIILLTVLVKAATFPLTKKQVESAMAMKSLTPQIKAIQERYAGDQEKIQLETARLYKLAGINPLAGCLPTLATIPVWIGLYRALSNVADEGLLTEGFFWIPSLAGPTTVAARQNGSGISWLFPFIEGHPPLGWPDTLAYLVLPLLLVFSQYLSIQIMQSSQSNDPAMKSSQAVTKLLPLMIGYFALSVPSGLSLYWLTNNILSTAQQVWLQKYGGAKNPVEKFTNLVTKEDKTQQIEKSFSEPLVQKSVSELKIPREKGGEKVTPECPKPGERFRLLKEQEAKRRREKEERQKAEAALSNQNTDKAHEQDEKSDTAIVAEDDKKTELSAVDETSDGTVAVNGKPSIQKDETTNGTFGIGHDTEQQHSHETEKR
partner: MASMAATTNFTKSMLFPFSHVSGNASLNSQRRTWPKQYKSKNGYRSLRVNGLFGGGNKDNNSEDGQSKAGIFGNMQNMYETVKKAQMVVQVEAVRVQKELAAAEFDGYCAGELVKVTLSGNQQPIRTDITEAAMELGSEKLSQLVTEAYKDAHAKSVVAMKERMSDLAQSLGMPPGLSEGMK

Variants of: B1
Conditions: with ebfc2_arath STIC2, O82230
For MSSTISLKPTHLILSSFSTGKVLQFRRSRFSHTPSSSSSRYRTLVAQLGFRPDSFDFIKDHAENLLYTIADAAVSSSETFESVAGTTTKTTQSNDWFSGIANYMETILKVLKDGLSTVHVPYSYGFAIILLTVLVKAATFPLTKKQVESAMAMKSLTPQIKAIQERYAGDQEKIQLETARLYKLAGINPLAGCLPTLATIPVWIGLYRALSNVADEGLLTEGFFWIPSLAGPTTVAARQNGSGISWLFPFIEGHPPLGWPDTLAYLVLPLLLVFSQYLSIQIMQSSQSNDPAMKSSQAVTKLLPLMIGYFALSVPSGLSLYWLTNNILSTAQQVWLQKYGGAKNPVEKFTNLVTKEDKTQQIEKSFSEPLVQKSVSELKIPREKGGEKVTPECPKPSERFRLLKEQEAKRRREKEERQKAEAALSNQNTDKAHEQDEKSDTAIVAEDDKKTELSAVDETSDGTVAVNGKPSIQKDETTNGTFGIGHDTEQQHSHETEKR [G397S], the “effect of a mutation on the interaction” value was “decreasing interaction strength”.

Variants of: B1
Conditions: with ebfc2_arath STIC2, O82230
Remark: another data set of the same source
For MSSTISLKPTHLILSSFSTGKVLQFRRSRFSHTPSSSSSRYRTLVAQLGFRPDSFDFIKDHAENLLYTIADAAVSSSETFESVAGTTTKTTQSNDWFSGIANYMETILKVLKDGLSTVHVPYSYGFAIILLTVLVKAATFPLTKKQVESAMAMKSLTPQIKAIQERYAGDQEKIQLETARLYKLAGINPLAGCLPTLATIPVWIGLYRALSNVADEGLLTEGFFWIPSLAGPTTVAARQNGSGISWLFPFIEGHPPLGWPDTLAYLVLPLLLVFSQYLSIQIMQSSQSNDPAMKSSQAVTKLLPLMIGYFALSVPSGLSLYWLTNNILSTAQQVWLQKYGGAKNPVEKFTNLVTKEDKTQQIEKSFSEPLVQKSVSELKIPREKGGEKVTPECPKPSERFRLLKEQEAKRRREKEERQKAEAALSNQNTDKAHEQDEKSDTAIVAEDDKKTELSAVDETSDGTVAVNGKPSIQKDETTNGTFGIGHDTEQQHSHETEKR [G397S], the “effect of a mutation on the interaction” value was “with no effect”.
